Reference: the supplement of paper PMC7877785
± gives the uncertainty stated by the source.

Assay: self-splicing fitness, log relative to wild type (ln ratio); higher = more splicing; Tetrahymena group I intron in knt gene, E. coli kanamycin selection, DiMSum; sequences stand for … in CUCUCU…GGAGGGAAAAGUUAUCAGGCAUGCACCUGGUAGCUAGUCUUUAAACCAAUAGAUUGCAUCGGUUUAAAAGGCAAGACCGUCAAAUUGCGGGAAAGGGGUCAACAGCCGUUCAGUACCAAGUCUCAGGGGAAACUUUGAGAUGGCCUUGCAAAGGGUAUGGUAAUAAGCUGACGGACAUGGUCCUAACCACGCAGCCAAGUCCUAAGUCAACAGAUCUUCUGUUGAUAUGGAUGCAGUUCACAGACUAAAUGUCGGUCGGGGAAGAUGUAUUCUUCUCAUAAGAUAUAGUCGGACCUCUCCUUAAUGGGAGCUAGCGGAUGAAGUGAUGCAACACUGGAGCCGCUGGGAACUAAUUUGUAUGCGAAAGUAUAUUGAUUAGUUUUGGAGUACUCGUGGUCG
Outline: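 Fitness was computed with DiMSum as the error-weighted combination of replicate fold changes, kanamycin versus none, each normalised to wild type. The library randomised all eight intron nucleotides of the P1ex region, with the intron placed in the knt kanamycin-resistance gene on pET-22b(+) in E. coli BL21(DE3). Six replicate transformations were grown overnight at 37°C or 30°C on LB agar with or without 25 μg/mL kanamycin, plus 100 μg/mL carbenicillin, 50 μM IPTG and 0.2% rhamnose. Pooled colonies were amplicon-sequenced on an Illumina HiSeq 2500.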

Row | Sequence | self-splicing fitness (ln) (30 °C) | self-splicing fitness (ln) (37 °C)
1 | UCUAAGCAAUAUUACGCAUU | -2.92 ± 0.21 | -2.83 ± 0.28
2 | AACGAGCAAUAUUACGCACU | -1.23 ± 0.11 | -0.611 ± 0.11
3 | AUUCAGCAAUAUUACGCAAU | -2.4 ± 0.23 | -0.772 ± 0.22
4 | AUAUAGCAAUAUUACGCUAA | -1.87 ± 0.3 | -0.768 ± 0.27
5 | UUCAAGCAAUAUUACGGGCU | -3.7 ± 0.21 | -1.81 ± 0.16
6 | UGCAAGCAAUAUUACGUUUG | -4.16 ± 0.33 | -2.87 ± 0.33
7 | CGUCAGCAAUAUUACGGGAG | -2.36 ± 0.098 | -0.946 ± 0.11
8 | GUGUAGCAAUAUUACGACUU | -0.0355 ± 0.15 | -0.00223 ± 0.19
9 | ACUCAGCAAUAUUACGGCAC | -1.24 ± 0.17 | -0.799 ± 0.25
10 | GGGAAGCAAUAUUACGCGAG | -1.06 ± 0.33 | -1.27 ± 0.47
11 | UAAAAGCAAUAUUACGCAGA | -2.11 ± 0.093 | -1.17 ± 0.086
12 | CGCCAGCAAUAUUACGACGG | -1.65 ± 0.11 | -0.853 ± 0.12
13 | ACUGAGCAAUAUUACGUCUU | -2.57 ± 0.13 | -1.11 ± 0.12
14 | UGCGAGCAAUAUUACGCUGU | -3.76 ± 0.21 | -2.24 ± 0.31
15 | CUGCAGCAAUAUUACGGGGG | -2.95 ± 0.18 | -2.6 ± 0.21
16 | UGCCAGCAAUAUUACGCAGA | -2.81 ± 0.2 | -1.66 ± 0.14
17 | UUCAAGCAAUAUUACGCGUU | -2.62 ± 0.12 | -0.189 ± 0.09
18 | UUAUAGCAAUAUUACGGGUG | -1.68 ± 0.1 | -0.829 ± 0.12
19 | GACCAGCAAUAUUACGGAGU | -0.646 ± 0.077 | 0.000468 ± 0.092
20 | GCCAAGCAAUAUUACGGCUA | -1.66 ± 0.17 | -1.39 ± 0.15
21 | CCCCAGCAAUAUUACGGUAC | -3.84 ± 0.25 | -2.66 ± 0.21
22 | CCCAAGCAAUAUUACGGAGA |  | -1.03 ± 0.17

Row | Sequence | self-splicing fitness (ln) (30 °C) | self-splicing fitness (ln) (37 °C)
23 | GCAGAGCAAUAUUACGUAGG | -2.17 ± 0.11 | -1.7 ± 0.14
24 | CUGCAGCAAUAUUACGUCCU | -3.82 ± 0.37 | -1.31 ± 0.31
25 | AUUUAGCAAUAUUACGACAG | -2.19 ± 0.24 | 0.257 ± 0.26
26 | UUCUAGCAAUAUUACGUAAG | -2.51 ± 0.15 | -0.938 ± 0.15
27 | AGCUAGCAAUAUUACGGCCG | -0.198 ± 0.15 | 0.841 ± 0.19
28 | GCAGAGCAAUAUUACGUUAA | -1.87 ± 0.27 | -2.64 ± 0.42
29 | UCAGAGCAAUAUUACGUUAG | -3.86 ± 0.42 | -3.25 ± 0.35
30 | CGGUAGCAAUAUUACGCAUU |  | -2.5 ± 0.24
31 | GGCAAGCAAUAUUACGCUGC | -3.37 ± 0.27 | 
32 | UAAAAGCAAUAUUACGGGUA | -0.918 ± 0.09 | -0.192 ± 0.095
33 | GACAAGCAAUAUUACGUCGU | -3.44 ± 0.14 | -2.24 ± 0.11
34 | UUGAAGCAAUAUUACGAGGA | -2.32 ± 0.16 | -0.555 ± 0.19
35 | CCCGAGCAAUAUUACGUGAC |  | -2.41 ± 0.3
36 | AGCGAGCAAUAUUACGAUAC | -3.47 ± 0.47 | -2.29 ± 0.39
37 | GAGGAGCAAUAUUACGGAGA | -2.95 ± 0.2 | -2.25 ± 0.27
38 | UGGUAGCAAUAUUACGCGUC | -3.94 ± 0.43 | -2.52 ± 0.35
39 | GAUGAGCAAUAUUACGUUGG | -3.65 ± 0.3 | -2.2 ± 0.32
40 | ACAAAGCAAUAUUACGCCUU | -2.01 ± 0.075 | -0.625 ± 0.087
41 | AGAAAGCAAUAUUACGGGAG | -2.56 ± 0.097 | -1.97 ± 0.12
42 | UUCUAGCAAUAUUACGCCCA | -1.55 ± 0.16 | -1.37 ± 0.14
43 | GUAAAGCAAUAUUACGCAAA | -0.784 ± 0.13 | -0.594 ± 0.16
